Measurements taken from article doi:10.1101/2025.02.11.637337 (bioRxiv, 2025).
Residue numbers refer to the chain shown, from its start. Names and notes keep the numbering of the source.

What was measured:
[1] = biological target: the molecule itself; experiment: crystal structure
[2] = biological target: the molecule itself; experiment: SEC + native gel or EMSA

B1: Fr-H6(E53H/E56H/E57H/R59H/E60H/E63H) (natural protein, horse)
chain: SSQIRQNYSTEVEAAVNRLVNLYLRASYTYLSLGFYFDRDDVALEGVCHFFRHLAHHKHHGAHRLLKMQNQRGGRALFQDLQKPSQDEWGTTLDAMKAAIVLEKSLNQALLDLHALGSAQADPHLCDFLESHFLDEEVKLIKKMGDHLTNIQRLVGSQAGLGEYLFERLTLKHD
stoichiometry N [1]: 24

B2: Fr-H8(R52H/E53H/E56H/E57H/R59H/E60H/E63H/R64H) (natural protein, horse)
chain: B1 chain with R52H, R64H
stoichiometry N [1]: 24

B3: Fr-H2(E53H/E57H) (natural protein, horse)
chain: B1 chain with H56E, H59R, H60E, H63E
stoichiometry N [2]: 24

B4: Fr-H4ex(E53H/E57H/E60H/R64H) (natural protein, horse)
chain: B1 chain with H56E, H59R, H63E, R64H
stoichiometry N [2]: 24

B5: Fr-H4in(R52H/E56H/R59H/E63H) (natural protein, horse)
chain: B1 chain with R52H, H53E, H57E, H60E
stoichiometry N [2]: 24
